Laboratory results taken from US20230101046A1, “ANAPLASTIC LYMPHOMA KINASE CHIMERIC ANTIGEN RECEPTORS AND METHODS OF USE” (The Children's Medical Center Corporation, priority 2020, published 2023).

How the values were obtained:
ALK = ALK (Homo sapiens, UniProt Q9UM73); assay: ALK phosphorylation / ALK signaling activity of ALK antibodies; assay type: cell-based
Method: (§1) Seven (7) ALK-specific antibodies (ALK Antibodies #1-#7) directed against the extracellular domain of human ALK receptor were evaluated for use in CAR-based immunotherapy.

Mouse-ALK = Mouse-ALK (Mus musculus, UniProt P97793); assay: Mouse-ALK binding of ALK antibodies
Method: as §1

Sequence of ALK (Q9UM73 19-1620): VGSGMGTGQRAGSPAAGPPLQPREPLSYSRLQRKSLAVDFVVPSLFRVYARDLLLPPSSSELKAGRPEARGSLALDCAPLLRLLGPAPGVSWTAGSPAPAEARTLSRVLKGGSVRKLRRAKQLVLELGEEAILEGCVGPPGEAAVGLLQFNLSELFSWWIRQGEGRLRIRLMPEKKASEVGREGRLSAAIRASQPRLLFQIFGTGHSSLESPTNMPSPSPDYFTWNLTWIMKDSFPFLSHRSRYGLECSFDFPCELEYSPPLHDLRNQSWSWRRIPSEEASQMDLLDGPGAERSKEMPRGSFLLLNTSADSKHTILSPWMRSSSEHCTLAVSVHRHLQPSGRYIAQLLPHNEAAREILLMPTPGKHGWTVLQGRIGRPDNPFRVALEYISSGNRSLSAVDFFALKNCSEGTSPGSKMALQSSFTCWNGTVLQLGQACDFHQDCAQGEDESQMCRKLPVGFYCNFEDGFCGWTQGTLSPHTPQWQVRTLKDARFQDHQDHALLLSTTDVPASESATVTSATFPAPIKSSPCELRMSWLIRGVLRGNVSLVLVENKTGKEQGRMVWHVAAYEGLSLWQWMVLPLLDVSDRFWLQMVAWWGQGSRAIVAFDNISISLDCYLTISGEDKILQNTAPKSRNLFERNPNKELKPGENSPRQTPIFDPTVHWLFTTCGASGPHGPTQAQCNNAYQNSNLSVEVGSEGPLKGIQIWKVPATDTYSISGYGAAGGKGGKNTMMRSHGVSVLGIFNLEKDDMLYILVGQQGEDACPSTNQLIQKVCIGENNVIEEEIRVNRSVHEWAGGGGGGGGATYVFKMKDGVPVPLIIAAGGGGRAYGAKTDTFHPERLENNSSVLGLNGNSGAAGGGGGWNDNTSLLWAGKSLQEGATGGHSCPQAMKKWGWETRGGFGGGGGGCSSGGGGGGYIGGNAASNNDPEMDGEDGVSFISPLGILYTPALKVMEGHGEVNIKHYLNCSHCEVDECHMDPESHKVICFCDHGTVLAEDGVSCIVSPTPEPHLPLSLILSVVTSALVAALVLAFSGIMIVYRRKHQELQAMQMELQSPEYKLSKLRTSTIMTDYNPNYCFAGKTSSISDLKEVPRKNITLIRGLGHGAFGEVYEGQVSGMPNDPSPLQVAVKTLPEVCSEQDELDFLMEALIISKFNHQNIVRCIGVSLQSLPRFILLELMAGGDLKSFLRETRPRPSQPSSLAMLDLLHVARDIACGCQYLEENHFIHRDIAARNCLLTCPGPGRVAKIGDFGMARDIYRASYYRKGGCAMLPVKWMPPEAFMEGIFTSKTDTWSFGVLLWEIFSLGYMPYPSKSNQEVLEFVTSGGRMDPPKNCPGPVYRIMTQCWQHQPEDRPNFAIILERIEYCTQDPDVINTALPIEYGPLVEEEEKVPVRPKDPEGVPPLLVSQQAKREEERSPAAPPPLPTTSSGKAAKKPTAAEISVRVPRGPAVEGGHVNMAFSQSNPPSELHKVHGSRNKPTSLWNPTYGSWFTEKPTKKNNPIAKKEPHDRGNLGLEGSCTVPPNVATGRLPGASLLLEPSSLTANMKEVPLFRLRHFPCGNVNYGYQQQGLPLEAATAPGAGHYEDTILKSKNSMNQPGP
Sequence of Mouse-ALK (P97793 19-1621): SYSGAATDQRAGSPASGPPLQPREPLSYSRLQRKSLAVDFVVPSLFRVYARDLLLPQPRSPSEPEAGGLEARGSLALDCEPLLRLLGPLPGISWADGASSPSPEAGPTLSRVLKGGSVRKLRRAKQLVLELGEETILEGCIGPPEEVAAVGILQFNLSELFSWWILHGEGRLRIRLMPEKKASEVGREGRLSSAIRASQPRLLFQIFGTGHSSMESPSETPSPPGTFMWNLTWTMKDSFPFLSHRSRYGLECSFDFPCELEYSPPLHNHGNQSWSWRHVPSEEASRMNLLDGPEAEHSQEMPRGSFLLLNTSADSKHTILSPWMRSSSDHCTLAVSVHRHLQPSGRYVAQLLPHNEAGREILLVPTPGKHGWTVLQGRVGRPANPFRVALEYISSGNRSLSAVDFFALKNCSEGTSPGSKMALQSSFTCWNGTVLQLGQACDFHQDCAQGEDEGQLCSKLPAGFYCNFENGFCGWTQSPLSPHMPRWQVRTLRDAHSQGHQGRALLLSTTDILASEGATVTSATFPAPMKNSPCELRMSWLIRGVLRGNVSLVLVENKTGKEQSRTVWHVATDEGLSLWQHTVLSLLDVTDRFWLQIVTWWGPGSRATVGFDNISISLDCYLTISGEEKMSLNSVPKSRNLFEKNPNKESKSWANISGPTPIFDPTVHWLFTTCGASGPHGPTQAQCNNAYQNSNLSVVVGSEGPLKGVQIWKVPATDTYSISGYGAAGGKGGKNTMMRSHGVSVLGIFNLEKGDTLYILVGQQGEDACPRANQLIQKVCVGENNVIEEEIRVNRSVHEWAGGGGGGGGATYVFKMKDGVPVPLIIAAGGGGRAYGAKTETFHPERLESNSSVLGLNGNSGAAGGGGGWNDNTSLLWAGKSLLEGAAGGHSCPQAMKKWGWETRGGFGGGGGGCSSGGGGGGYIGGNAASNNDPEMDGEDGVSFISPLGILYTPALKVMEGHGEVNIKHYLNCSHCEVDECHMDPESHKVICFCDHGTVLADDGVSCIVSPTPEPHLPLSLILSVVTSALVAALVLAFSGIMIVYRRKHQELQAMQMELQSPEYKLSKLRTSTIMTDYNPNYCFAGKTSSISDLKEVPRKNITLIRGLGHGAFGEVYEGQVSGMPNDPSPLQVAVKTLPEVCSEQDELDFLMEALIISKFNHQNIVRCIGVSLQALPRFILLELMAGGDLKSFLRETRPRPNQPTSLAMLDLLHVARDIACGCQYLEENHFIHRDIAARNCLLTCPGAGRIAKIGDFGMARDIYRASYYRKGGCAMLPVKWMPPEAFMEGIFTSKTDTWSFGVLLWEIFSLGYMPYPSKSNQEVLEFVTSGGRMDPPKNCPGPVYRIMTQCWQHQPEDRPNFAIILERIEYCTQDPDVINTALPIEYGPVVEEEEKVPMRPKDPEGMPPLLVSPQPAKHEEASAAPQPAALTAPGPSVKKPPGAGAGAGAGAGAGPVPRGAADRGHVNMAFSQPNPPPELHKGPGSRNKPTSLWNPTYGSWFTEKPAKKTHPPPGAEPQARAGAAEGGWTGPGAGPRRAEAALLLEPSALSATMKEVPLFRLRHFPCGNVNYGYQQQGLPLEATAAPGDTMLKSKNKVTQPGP

| Molecule | activity on ALK signaling (ALK) | recognition of human and murine ALK (Mouse-ALK) |
| --- | --- | --- |
| ALK Antibody 5: mouse hybridoma anti-ALK antibody against extracellular domain of human ALK receptor; VL/VH sequences in Tables 1 and 2 (antibody, V domains shown) VH: QVQLQQSGAELAKPGASVKLSCKASGYTFTSYWMHWVKQRPGQGLEWIGYIKPSSGYTKYNQKFKDKATLTADKSSSTAYMQLSSLTYEDSAVYYCARDYYGSSSWFAYWGQGTLVTVSA VL: DIVMTQSQRFMSTSVGDRVSVTCKASQNVGTNVAWYQQKPGQSPKALIYSASYRYSGVPDRFTGSGSGTDFTLTISNVQSEDLAEYFCQQYNSYPYMYTFGGGTKLEIKR | inhibited ALK signaling | recognize both the human and murine ALK |
| ALK Antibody 3: mouse hybridoma anti-ALK antibody against extracellular domain of human ALK receptor; VL/VH sequences in Tables 1 and 2 (antibody, V domains shown) VH: QVQLQQSGAELAKPGASVKLSCKASGYTFTNYWMHWVKQRPGQGLEWIGYINPSSGYTKYNQKFKDKATLTADKSSSTAYMQLSSLTYEDSAVYYCARDYYGSSSWFAYWGQGTLVTVSA VL: DIVMTQSQRFMSTSVGDRVSVTCKASQNVGTNVAWYQQKPGQSPKALIYSASYRYSGVPDRFTGSGSGTDFTLTVSNVQSEDLAEYFCQQYNSYPYMYTFGGGTKLEIKR | inhibited ALK signaling | – |
| ALK Antibody 1: mouse hybridoma anti-ALK antibody against extracellular domain of human ALK receptor; VL/VH sequences in Tables 1 and 2 (antibody, V domains shown) VH: QVQLQQSGAELVKPGASVKISCKASGYAFSSYWMNWVKQRPGKGLEWIGQIYPGDGDTNYNGKFKGKATLTADKSSSTAYMQLSSLTSEDSAVYFCASYYYGSKAYWGQGTLVTVSA VL: DIQMTQSPASLAASVGETVTITCRASENIYYSLAWYQQKQGKSPQLLIYNANSLEDGVPSRFSGSGSGTQYSMKINSMQPEDTATYFCKQAYDVPFTFGSGTKLEIKR | no effect on ALK signaling | – |

Continued, values first:

| activity on ALK signaling (ALK) | recognition of human and murine ALK (Mouse-ALK) | Molecule |
| --- | --- | --- |
| agonistic of ALK signaling | recognize both the human and murine ALK | ALK Antibody 7: mouse hybridoma anti-ALK antibody against extracellular domain of human ALK receptor; VL/VH sequences in Tables 1 and 2 (antibody, V domains shown) VH: QVQLQQSGAELAKPGASVKLSCKASGYTFTSYWMHWVKQRPGQGLEWIGYINPSSGYTKYNQKFKDKATLTADKSSSTAYMQLSSLTFEDSAVYYCARDYYGSSSWFAYWGQGTLVTVSA VL: DIVMTQSQKFMSTSVGDRVSVTCKASQNVGTNVAWYQQKPGHSPKALIYSASYRYSGVPDRFTGSGSGTDFTLTISNVQSEDLAEYFCQRYNSYPYMFTFGGGTKLEIKR |
| inhibited ALK signaling | recognize both the human and murine ALK | ALK Antibody 6: mouse hybridoma anti-ALK antibody against extracellular domain of human ALK receptor; VL/VH sequences in Tables 1 and 2 (antibody, V domains shown) VH: DVKLVESGEGLVKPGGSLKLSCAASGFTFSSYAMSWVRQTPEKRLEWVTYISSGGDYIYYADTVKGRFTISRDNARNTLYLQMSSLKSEDTAMYYCTRERIWLRRFFDVWGTGTTVTVSS VL: DIVMTQSQKFMSTSVGDRVSITCKASQNVGTAVAWYQLKPGQSPKLLIYSASNRFTGVPDRFTGSGSGTDFTLTISNMQSEDLADYFCQQYSSYPLTFGSGTKLEIKR |
